Laboratory results from patent US20240010684A1 (Bayer, published 2024).
*1 amine or outer side, *2 acyl side, *3 side chain or, on linkers, in order; H or OH if unused. Bridges are numbered along the chain shown (N, C = ends). Where no end group is shown, it is not given here. [ ]: non-standard residue; d: D form. Oic = O=C(O)[C@@H]1C[C@@H]2CCCC[C@@H]2N1; Adipoyl = O=C(CCCCC(=O)[*:2])[*:1]; Trx = NC[C@H]1CC[C@H](C(=O)O)CC1; tBuAla = CC(C)(C)C[C@H](N)C(=O)O; Pen = CC(C)(S)[C@H](N)C(=O)O; 4Amb = NCc1ccc(C(=O)O)cc1; Dap = NC[C@H](N)C(=O)O; Ahx = NCCCCCC(=O)O; GABA = NCCCC(=O)O; Sar = CNCC(=O)O

B1: Bicyclic SFMI-2: G**YC+SRSYPPVC+IPD** (peptide)
peptide: cyclo(GYCSRSYPPVCIPD)
modifications: disulfide 3-11
SMILES: CC[C@H](C)[C@@H]1NC(=O)[C@@H]2CSSC[C@H](NC(=O)[C@H](Cc3ccc(O)cc3)NC(=O)CNC(=O)[C@H](CC(=O)O)NC(=O)[C@@H]3CCCN3C1=O)C(=O)N[C@@H](CO)C(=O)N[C@@H](CCCNC(=N)N)C(=O)N[C@@H](CO)C(=O)N[C@@H](Cc1ccc(O)cc1)C(=O)N1CCC[C@H]1C(=O)N1CCC[C@H]1C(=O)N[C@@H](C(C)C)C(=O)N2
B2: Example 64: (Ahx)**-((N-Me)G)-IC+SRS-((tBu)A)-PPI-(Pen)+-I** (peptide)
peptide: cyclo([Ahx][Sar]ICSRS[tBuAla]PPI[Pen]I)
modifications: disulfide 4-12; also: TFA salt
B3: Example 58: I**C+SRS-((tBu)A)-PPI-(Pen)+-IPP** (peptide)
peptide: cyclo(ICSRS[tBuAla]PPI[Pen]IPP)
modifications: disulfide 2-10; also: TFA salt
B4: Example 39: A**GGIC+SRS-((tBu)A)-PPI-(Pen)+-IPd** (peptide)
peptide: cyclo(AGGICSRS[tBuAla]PPI[Pen]IP[dD])
modifications: disulfide 5-13; also: TFA salt
B5: Example 92: A**GGIC+SRSLP-(Oic)-I-(Pen)+-IPD** (peptide)
peptide: cyclo(AGGICSRSLP[Oic]I[Pen]IPD)
modifications: disulfide 5-13; also: TFA salt
B6: Example 68: (Ahx)**-(4-(Aminomethyl)benzoic acid)-IC+SRS-((tBu)A)-PPI-(Pen)+-IP** (peptide)
peptide: cyclo([Ahx][4Amb]ICSRS[tBuAla]PPI[Pen]IP)
modifications: disulfide 4-12; also: TFA salt
B7: Example 72: (Ahx)**-AIC+SRS-((tBu)A)-PPI-(Pen)+-I** (peptide)
peptide: cyclo([Ahx]AICSRS[tBuAla]PPI[Pen]I)
modifications: disulfide 4-12; also: TFA salt
B8: Example 93: E++GIC+SRSLP-(Oic)-I-(Pen)+-IPD-(Dap)++-NH2 (peptide)
peptide: EGICSRSLP[Oic]I[Pen]IPD[Dap]-NH2
modifications: lactam 1-16; disulfide 4-12; also: TFA salt
B9: Example 98: A**GGIC+SRSLP-(Oic)-I-(Pen)+-IPd** (peptide)
peptide: cyclo(AGGICSRSLP[Oic]I[Pen]IP[dD])
modifications: disulfide 5-13; also: TFA salt
B10: Example 75: (Ahx)**-IC+SRSLP-(Oic)-I-(Pen)+-IPE++-NH2 (peptide)
peptide: [Ahx]ICSRSLP[Oic]I[Pen]IPE-NH2
modifications: disulfide 3-11; lactam N-14; also: TFA salt
B11: Example 59: (Ahx)**-(TXA)-IC+SRS-((tBu)A)-PPI-(Pen)+-IP** (peptide)
peptide: cyclo([Ahx][Trx]ICSRS[tBuAla]PPI[Pen]IP)
modifications: disulfide 4-12; also: TFA salt
B12: Example 52: (Ahx)**-IC+SRS-((tBu)A)-PPI-(Pen)+-I** (peptide)
peptide: cyclo([Ahx]ICSRS[tBuAla]PPI[Pen]I)
modifications: disulfide 3-11; also: TFA salt
B13: Example 53: (Ahx)**-AIC+SRS-((tBu)A)-PPI-(Pen)+-IP** (peptide)
peptide: cyclo([Ahx]AICSRS[tBuAla]PPI[Pen]IP)
modifications: disulfide 4-12; also: TFA salt
B14: Example 54: (Ahx)**-((N-Me)G)-IC+SRS-((tBu)A)-PPI-(Pen)+-IP** (peptide)
peptide: cyclo([Ahx][Sar]ICSRS[tBuAla]PPI[Pen]IP)
modifications: disulfide 4-12; also: TFA salt
B15: Example 60: (Adipic acid)**-IC+SRS-((tBu)A)-PPI-(Pen)+-IPD-(Dap)++-NH2 (peptide)
peptide: Adipoyl-ICSRS[tBuAla]PPI[Pen]IPD[Dap]-NH2
modifications: lactam (positions not given here); disulfide 2-10; not fully specified (bridges); also: TFA salt
B16: Example 35: (Gamma-Abu)**-IC+SRS-((tBu)A)-PPI-(Pen)+-IPD** (peptide)
peptide: cyclo([GABA]ICSRS[tBuAla]PPI[Pen]IPD)
modifications: disulfide 3-11; also: TFA salt
B17: Example 28: (Ahx)**-GIC+SRS-((tBu)A)-PPI-(Pen)+-IPD** (peptide)
peptide: cyclo([Ahx]GICSRS[tBuAla]PPI[Pen]IPD)
modifications: disulfide 4-12; also: TFA salt
B18: Example 89: (Dap)**-(Dap)-IC+SRSLP-(Oic)-I-(Pen)+-IP** (peptide)
peptide: cyclo([Dap][Dap]ICSRSLP[Oic]I[Pen]IP)
modifications: disulfide 4-12; also: TFA salt

target: T1, recombinant human MASP1 (amino acids 297-699, C-terminal His Tag) (human, UniProt P48740 297-699); assay: cell-based or functional assay
T1 sequence: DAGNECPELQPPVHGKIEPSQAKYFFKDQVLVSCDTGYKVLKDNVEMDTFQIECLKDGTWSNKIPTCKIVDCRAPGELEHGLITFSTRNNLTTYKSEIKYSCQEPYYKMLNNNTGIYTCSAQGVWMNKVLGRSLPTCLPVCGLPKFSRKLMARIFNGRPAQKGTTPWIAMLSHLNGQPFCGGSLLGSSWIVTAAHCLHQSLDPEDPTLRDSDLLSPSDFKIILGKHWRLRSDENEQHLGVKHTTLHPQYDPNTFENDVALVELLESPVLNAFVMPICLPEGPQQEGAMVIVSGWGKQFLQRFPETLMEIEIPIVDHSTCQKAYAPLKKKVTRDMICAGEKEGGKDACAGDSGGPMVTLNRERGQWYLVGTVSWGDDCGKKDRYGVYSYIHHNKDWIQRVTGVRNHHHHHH

Binder | human MASP1 IC50
B1 | 8.13 µM

target: T1, recombinant human MASP1 (amino acids …); assay: cell-based or functional assay; remark: another data set of the same source

Binder | human MASP1 IC50
B2 | 9.4 nM
B3 | 9 nM
B4 | 6 nM
B5 | 8.4 nM
B6 | 6.1 nM
B7 | 6.3 nM
B8 | 35 nM
B9 | 19 nM
B10 | 7.2 nM
B11 | 11 nM
B12 | 7.9 nM
B13 | 6.75 nM
B14 | 8.5 nM
B15 | 58 nM
B16 | 4.1 nM
B17 | 19 nM
B18 | 5.7 nM

target: recombinant human MASP2 (amino acids 297-686, C-terminal His Tag) (human, UniProt O00187 297-686); assay: cell-based or functional assay
Sequence (O00187 other isoform, or with tags, fused parts or gaps limits assumed): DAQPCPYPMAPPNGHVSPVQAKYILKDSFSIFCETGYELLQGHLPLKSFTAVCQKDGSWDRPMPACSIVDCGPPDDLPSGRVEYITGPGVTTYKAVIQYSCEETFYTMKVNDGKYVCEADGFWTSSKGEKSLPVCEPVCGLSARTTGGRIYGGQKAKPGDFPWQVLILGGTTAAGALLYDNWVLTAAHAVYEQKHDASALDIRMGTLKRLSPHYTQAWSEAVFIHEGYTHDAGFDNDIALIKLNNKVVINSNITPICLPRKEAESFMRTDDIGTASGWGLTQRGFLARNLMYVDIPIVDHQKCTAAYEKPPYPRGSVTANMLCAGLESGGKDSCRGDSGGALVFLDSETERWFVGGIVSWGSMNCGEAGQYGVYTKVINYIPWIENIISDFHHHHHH

Binder | human MASP2 IC50
B2 | 12 nM
B3 | 650 nM
B4 | 75 nM
B5 | 77 nM
B6 | 2.57 nM
B7 | 48 nM
B8 | 45 nM
B9 | 160 nM
B10 | 14 nM
B11 | 5.7 nM
B12 | 9.3 nM
B13 | 83.5 nM
B14 | 33 nM
B15 | 5.4 nM
B17 | 29 nM
B18 | 91 nM

target: T2, recombinant rat MASP1 (amino acids 302-704, C-terminal His Tag) (rat, UniProt Q8CHN8 302-704); assay: cell-based or functional assay
T2 sequence: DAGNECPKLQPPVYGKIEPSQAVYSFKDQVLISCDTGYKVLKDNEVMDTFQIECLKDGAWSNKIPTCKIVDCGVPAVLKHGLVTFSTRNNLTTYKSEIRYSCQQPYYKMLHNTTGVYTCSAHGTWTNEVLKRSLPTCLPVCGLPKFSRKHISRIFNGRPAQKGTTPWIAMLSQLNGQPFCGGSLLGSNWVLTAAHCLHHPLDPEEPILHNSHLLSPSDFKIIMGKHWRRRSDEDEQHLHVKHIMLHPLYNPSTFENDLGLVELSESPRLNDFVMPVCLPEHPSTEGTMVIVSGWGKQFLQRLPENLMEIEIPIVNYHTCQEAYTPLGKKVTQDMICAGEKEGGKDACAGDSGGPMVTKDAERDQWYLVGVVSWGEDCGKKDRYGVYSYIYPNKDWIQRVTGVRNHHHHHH

Binder | rat MASP1 IC50
B1 | 1000 nM

target: T3, recombinant rat MASP2 (amino acids 296-685, C-terminal His Tag) (rat, UniProt Q9JJS8 296-685); assay: cell-based or functional assay
T3 sequence (Q9JJS8 other isoform, or with tags, fused parts or gaps limits assumed): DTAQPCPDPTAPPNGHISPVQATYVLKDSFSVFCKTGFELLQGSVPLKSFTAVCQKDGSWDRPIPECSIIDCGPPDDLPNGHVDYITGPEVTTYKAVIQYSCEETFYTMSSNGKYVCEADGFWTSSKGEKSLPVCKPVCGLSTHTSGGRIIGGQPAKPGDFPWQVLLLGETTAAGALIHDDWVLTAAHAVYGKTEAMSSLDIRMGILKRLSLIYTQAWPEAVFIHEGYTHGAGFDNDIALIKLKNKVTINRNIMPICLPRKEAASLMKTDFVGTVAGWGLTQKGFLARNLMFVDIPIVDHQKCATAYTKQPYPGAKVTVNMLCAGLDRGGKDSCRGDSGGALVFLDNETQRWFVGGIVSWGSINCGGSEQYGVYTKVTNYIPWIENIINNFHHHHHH

Binder | rat MASP2 IC50
B1 | 126 nM

target: T2, recombinant rat MASP1 (amino acids …); assay: cell-based or functional assay; remark: another data set of the same source

Binder | rat MASP1 IC50
B2 | 157 nM
B3 | 110 nM
B4 | 44 nM
B5 | 170 nM
B6 | 30.8 nM
B7 | 85 nM
B8 | 410 nM
B9 | 170 nM
B10 | 27 nM
B11 | 48.6 nM
B12 | 79 nM
B13 | 96 nM
B14 | 180 nM
B15 | 330 nM
B16 | 63 nM
B17 | 79 nM
B18 | 290 nM

target: T3, recombinant rat MASP2 (amino acids …); assay: cell-based or functional assay; remark: another data set of the same source

Binder | rat MASP2 IC50
B2 | 13 nM
B3 | 46 nM
B4 | 8 nM
B5 | 41 nM
B6 | 2.97 nM
B7 | 14 nM
B8 | 68 nM
B10 | 1.4 nM
B12 | 11.6 nM
B13 | 19 nM
B14 | 18 nM
B15 | 13 nM
B16 | 24 nM
B17 | 16 nM
B18 | 64 nM
